IC50, Km and kcat data for three molecules are collected here from article PMC7717453, “A study of Rose Bengal against a 2-keto-3-deoxy-D-manno-octulosonate cytidylyltransferase as an antibiotic candidate” (Journal of Enzyme Inhibition and Medicinal Chemistry, 2020).

In general, IC50 refers to the midpoint of a concentration-inhibition curve. Lower therefore signals higher potency. As a reminder, the Km is the concentration of substrate that gives half-maximal velocity. As a reminder, the kcat is the number of substrate molecules converted per active site and unit of time at saturation.

Data set [1] concerns the target T1, PaKdsB (2-keto-3-deoxy-D-manno-octulosonate cytidylyltransferase) (Pseudomonas aeruginosa, UniProt Q9HZM5).
T1 construct: gene kdsB; native KdsB with N-terminal tag MHHHHHH EFSQQDSD
T1 sequence (Q9HZM5 1-254): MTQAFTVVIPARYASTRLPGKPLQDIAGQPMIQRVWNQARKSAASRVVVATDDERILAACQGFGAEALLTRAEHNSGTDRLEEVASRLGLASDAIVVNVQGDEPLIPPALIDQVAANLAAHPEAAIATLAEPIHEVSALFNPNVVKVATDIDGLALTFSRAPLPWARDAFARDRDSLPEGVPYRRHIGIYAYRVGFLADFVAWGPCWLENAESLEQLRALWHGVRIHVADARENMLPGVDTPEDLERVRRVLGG
The data set can be described thus: malachite green enzyme assay (IC50), inhibition kinetics; increased thermostability. It counts as biochemical. An excerpt:
malachite green enzyme assay (IC50), inhibition kinetics; increased thermostability on PaKdsB (2-keto-3-deoxy-D-manno-octulosonate cytidylyltransferase) | The IC50 value determined from the dose-dependent inhibitory curve of Rose Bengal

Data set [2] deals with T2, BtKdsB (2-keto-3-deoxy-D-manno-octulosonate cytidylyltransferase) (Burkholderia thailandensis, UniProt Q2T0K3).
T2 construct: gene kdsB; native KdsB with N-terminal tag MHHHHHH GGGGG
The data set can be described thus: biochemical.

The subject of data set [3] is Nc1ccn([C@@H]2O[C@H](COP(=O)(O)OP(=O)(O)OP(=O)(O)O)[C@@H](O)[C@H]2O)c(=O)n1. Put plainly: purified protein.
For data set [4], the system named is O=C(O)C(=O)C[C@@H](O)[C@@H](O)[C@H](O)[C@H](O)CO. The data set can be described thus: purified protein.
Substrate in data set [5]: Nc1ccn([C@@H]2O[C@H](COP(=O)(O)OP(=O)(O)OP(=O)(O)O)[C@@H](O)[C@H]2O)c(=O)n1
The data set can be described thus: steady-state kinetics (Km), malachite green assay. The data set is classed as biochemical, Pseudomonas aeruginosa. The following applies: KDO ([…]), Mg2+ ([…] MgCl2) nucleotide binding site.

Substrate in data set [6]: O=C(O)C(=O)C[C@@H](O)[C@@H](O)[C@H](O)[C@H](O)CO
Put plainly: steady-state kinetics (Km), malachite green assay. The data set is classed as biochemical, Pseudomonas aeruginosa. The note with it: CTP ([…]), Mg2+ ([…] MgCl2) substrate binding site.

T2 sequence (Q2T0K3 whole entry): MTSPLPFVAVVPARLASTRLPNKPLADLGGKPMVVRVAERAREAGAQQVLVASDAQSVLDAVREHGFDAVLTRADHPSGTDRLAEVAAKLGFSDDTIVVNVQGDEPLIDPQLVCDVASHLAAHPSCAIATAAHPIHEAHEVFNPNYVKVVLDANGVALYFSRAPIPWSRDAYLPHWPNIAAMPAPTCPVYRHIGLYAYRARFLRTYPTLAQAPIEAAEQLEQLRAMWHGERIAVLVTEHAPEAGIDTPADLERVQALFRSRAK

As for `O=C1OC2(c3cc(I)c(O)c(I)c3Oc3c2cc(I)c(O)c3I)c2c(Cl)c(Cl)c(Cl)c(Cl)c21` [Rose Bengal], the IC50 in data set [1] was determined as 14.7 µM; in data set [2], 7.24 µM.

As for “BtKdsB (2-keto-3-deoxy-D-manno-octulosonate cytidylyltransferase) (Burkholderia thailandensis E264)”, in data set [3], the Km is 123.9 ± 34 µM and the kcat came out at 0.142 ± 0.0193 s⁻¹. In data set [4], the Km came out at 56 ± 11 µM and the kcat stood at 0.116 ± 0.0062 s⁻¹.

B1: PaKdsB (2-keto-3-deoxy-D-manno-octulosonate cytidylyltransferase) (Pseudomonas aeruginosa PAO1) (protein)
chain: MTQAFTVVIPARYASTRLPGKPLQDIAGQPMIQRVWNQARKSAASRVVVATDDERILAACQGFGAEALLTRAEHNSGTDRLEEVASRLGLASDAIVVNVQGDEPLIPPALIDQVAANLAAHPEAAIATLAEPIHEVSALFNPNVVKVATDIDGLALTFSRAPLPWARDAFARDRDSLPEGVPYRRHIGIYAYRVGFLADFVAWGPCWLENAESLEQLRALWHGVRIHVADARENMLPGVDTPEDLERVRRVLGG
notes: native KdsB with N-terminal tag MHHHHHH EFSQQDSD
Turning to B1, in data set [5], the Km is 98.3 ± 30 µM and the kcat is 0.132 ± 0.0184 s⁻¹. Moreover, in data set [6], the Km came to 61 ± 11 µM and the kcat came to 0.0758 ± 0.00383 s⁻¹.
